Reference: patent publication EP3653708A1, “ISOMALTULOSE PRODUCTION” (Evonik Operations GmbH, priority 2018, dated 2020)

Experiments:
[1] = test system: OC[C@H]1O[C@@](CO)(O[C@H]2O[C@H](CO)[C@@H](O)[C@H](O)[C@H]2O)[C@@H](O)[C@@H]1O; experiment: Michaelis-Menten kinetics of the conversion of sucrose into isomaltulose (HPLC, initial velocities); assay type: biochemical, Serratia plymuthica; conditions: 25 mM calcium acetate pH 5.5, 20 °C, 74.7 nM enzyme, 50-400 mM sucrose
Method: (§1) The enzyme activity assay was carried out in 25 mM calcium acetate pH 5.5 in the presence of 1.16 M sucrose (Sigma-Aldrich, St. Louis, MO) for 16 h at 20 °C.
(§2) The reaction mixture was composed as follows:
(§3) The enzymatic product composition was determined on an Agilent 1200 HPLC instrument (Agilent Technologies, Santa Clara, United States of America) equipped with a Smart line refractive index detector 2300 (Knauer, Berlin, Germany). The sample solution was applied on an XBridge amide column (particle size: 5.0 µm, inner diameter: 4.6, length: 250 mm); (Waters, Milford, MA) at a flow rate of 2 mL/min using a running buffer of 57.8 % acetonitrile, 26.1 % acetone and 16.1 % H2O.
The Michaelis constant (KM), the turnover number (kcat) and the catalytic efficiency (kcat/KM) were determined for isomaltulose. To this end, the enzymatic reaction was carried out as described above at sucrose concentrations of 50 mM, 100 mM, 150 mM, 200 mM, 300 mM and 400 mM and stopped after 10 min, 20 min, 30 min and 40 min by heating the sample at 95 °C for 10 min. To determine the initial velocities at these sucrose concentrations, the isomaltulose yield was analysed via HPLC and plotted against the […]. The slope of the subsequent linear regression corresponded to the initial velocity.
Figure 1 illustrates analysis of the enzyme kinetics and the product spectrum of mutant SmuA. […] The initial velocities for the production of isomaltulose were measured by HPLC at sucrose concentrations of 50 mM, 100 mM, 150 mM, 200 mM, 300 mM, and 400 mM. The enzyme activity assay was carried out in 25 mM calcium acetate buffer pH 5.5 at 20 °C and 74.7 nM of the enzyme. […] Chromatographic conditions: XBridge amide column (particle size: 5.0 µm, inner diameter: 4.6, length: 250 mm); flow rate: 2 mL/min; injection volume: 20 µL; running buffer: 57.8 % acetonitrile, 26.1 % acetone, 16.1 % H2O. Detection via Smartline refractive index detector 2300. The enzyme activity assay was carried out in 25 mM calcium acetate buffer pH 5.5 in the presence of 1.16 M sucrose and 74.4 nM of the recombinant wild type enzyme for 16 h at 20 °C. Table 1: Composition of the isomerization products from sucrose by engineered SmuA variants.

[2] = target: Serratia plymuthica sucrose isomerase SmuA variant SmuA(Q181P/D398G/F453Y) (Serratia plymuthica, UniProt D0VX20, D383G/F438Y/Q166P/V450E); experiment: as above; assay type: biochemical; conditions: 25 mM calcium acetate pH 5.5, 20 °C, 74.7 nM enzyme, 50-400 mM sucrose
Method: as §1, §2, §3
The Michaelis constant (KM), the turnover number (kcat) and the catalytic efficiency (kcat/KM) were determined for isomaltulose. […] To determine the initial velocities at these sucrose concentrations, the isomaltulose yield was analysed via HPLC and plotted against the respective sucrose concentration. […]
Figure 1 illustrates analysis of the enzyme kinetics and the product spectrum of mutant SmuA. […] The initial velocities for the production of isomaltulose were measured by HPLC at sucrose concentrations of 50 mM, 100 mM, 150 mM, 200 mM, 300 mM, and 400 mM. […]

[3] = other: SmuA(Y219L/T369F/D398G/F453Y)

Compound: Serratia plymuthica sucrose isomerase SmuA variant SmuA(Y219L/T369F/D398G/F453Y) (Serratia plymuthica; D383G/F438Y/T354F/V450E/Y204L)
- Km [1, 3]: 58.16 mM
- kcat [1, 3]: 201.07 s⁻¹
- kcat/Km [1, 3]: 3460 M⁻¹ s⁻¹

Compound: Serratia plymuthica sucrose isomerase SmuA variant SmuA(Y219L) (Serratia plymuthica; V450E/Y204L)
- Km ([1]; other: SmuA(Y219L)): 86.64 mM
- kcat ([1]; other: SmuA(Y219L)): 665.77 s⁻¹
- kcat/Km ([1]; other: SmuA(Y219L)): 7680 M⁻¹ s⁻¹

Compound: OC[C@H]1O[C@@](CO)(O[C@H]2O[C@H](CO)[C@@H](O)[C@H](O)[C@H]2O)[C@@H](O)[C@@H]1O [sucrose]
- kcat [2]: 122.88 s⁻¹

Compound: Serratia plymuthica sucrose isomerase SmuA, used as wildtype SmuA (UniProt D0VX20 with point mutation V465E, SEQ ID NO:3) (Serratia plymuthica; V450E)
- Km ([1]; other: SmuA): 55.25 mM
- kcat ([1]; other: SmuA): 965.15 s⁻¹
- kcat/Km ([1]; other: SmuA): 17470 M⁻¹ s⁻¹

Compound: Serratia plymuthica sucrose isomerase SmuA variant SmuA(Y219L/D398G) (Serratia plymuthica; D383G/V450E/Y204L)
- Km ([1]; other: SmuA(Y219L/D398G)): 60.16 mM
- kcat ([1]; other: SmuA(Y219L/D398G)): 708.22 s⁻¹
- kcat/Km ([1]; other: SmuA(Y219L/D398G)): 11770 M⁻¹ s⁻¹
